Measurements: the nanobody polyreactivity screen of Harvey et al. (2022)

Assay: yeast display, Sf9 membrane polyspecificity reagent, FACS + sequencing; frameworks hold sequencing errors
Procedure, shortened: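 Sorting gates, low and high (top ~1%), were placed on anti-HA fluorescence to track expression and on streptavidin fluorescence to track reagent binding. A clone's polyreactivity label is taken from the gate it came out of. The reagent was 10% biotinylated, detergent-solubilized Sf9 membrane, applied for 1 hour at 4 °C to galactose-induced yeast display cells.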

Sequence	polyreactivity (PSR sort gate)
QVQLVESGGGLVQAGGSLRLSCAASGRIFLWNAMGWYRQAPGKERELVAGIRWSTGSTYYADSVKGRFTISRDNAKNTVYLQKNSLKREDTAVYYCNARSFATGSKVPARGYWGQGTQVTVSS	high polyreactivity
QVQLGESGGGLVQAGGSVRLSCAASGRTFDTNAMGWYRQAPGKERELVAAISWSAGRTYYADSVKGRFTISRDNAKNTVYLQMNSLKPEDTAVYYCAARPPFIAYSWQKHGYYWGQGTQVTVSS	low polyreactivity
QVQIVESGGRLDQAGGILRLSCAASGRTFTVNAMGWNRQAPGKERELVATIRSGGTTNYAASVKGRFTISRDNAKNTVYLTMNRLKPEDTAVYYCNARVLTRTSVVRYYYWGQGTQVTVSS	high polyreactivity
QVQLVDSGGGLVQAGGSLRLSSAASGRIFNRYAMGWYRQAPGKERELVAAITRGTRTNYADSVKGRFTISRDNAKNTVYLQMNSLKPEDTAVYYCAAAYGRGSDSDYWGQGTQVTVSS	high polyreactivity
QVQLVESGGGLVQAGGSLRLSCAASGRTFNTNAMGWYRQAPGKERELVAAISGSGVRTYYADSVKGRFTISRDNAKNTVYLQMNSLKPEDTAVYYCAARGQGGPYNYWGQGTQVTVSS	high polyreactivity
QVQLVESGGGLVQAGGSLRLSCAASGSIFVRNGMGWYRQAPGKERELVASITSGTITYYADSVKGRFTISRDNAKNTVYLQMNSLKPEDTAVYYCNAGWRSSRMEYWGQGTQVTVSS	high polyreactivity
QVQLVESGGGLVQAGGSLRLSSAASGFTFSAYAMGWYRQAPGKEREMVATITSGGSTNYADSVKGRFTISRDNAKNTVYLQMNSLIPEDTAVYYCAADVGWLYYYPKYYYWGQGTQVTVSW	low polyreactivity
QVQLVESGGGVVQAGGSLRLSCAASGSTFTTNAMGWYRQAPGKDREFVAAIRRTSGRTYYADSVKGRFTISRDNAKNTVYLQMNSLKPEDTAVFYCATDSYSPYGLKSRYDYWGQGTQVTVSS	high polyreactivity
QVQLVESGGGLVQAGGSLRLSCAASGRIIGGYAMGWYRQAPGKERELVAAITFRSGTTYYADSVKGRFTISRDNAKNTVYLQMNSLKPEDTAVYYCAARWGPYAFTYVRTYDYWGQGTQVTVSS	low polyreactivity
QVQLVESGGGLVQAGGSLRLSCAASGRIFKPYVMGWYRQAPGKERELGAAISWGGGRTYYADSVKGRFTISRDNAKNTVYLQMNSLKPEDTAVYYCAAPRRFDYDWGQGTQVTVSS	low polyreactivity
QVHLVESGGGLVQAGGSLLLSCGASGITFVTYAMGWYRQAPGKEREFVPAISRSGGRTYYADSVKGRFTISRDNAKNTVYLQMNSLKPEDTAVYYCASDVFLLYSFTIYDYWGQGTQVTVSS	high polyreactivity
QVQLVESGGGLVQAGGSLRLLCAASGFTFFRYAKGWYRQAPGKERELLATINWSGGRTYYADSVKGRFTISRDNAKNTVYLQMNSLKPEDTAVYYSNAYYPSSFWRMDYWGQGTQVTVSS	high polyreactivity
QVQLVESGGGLVQAGGSLRLSCAASGRIFRSYAMGWYRQAPGKERELVAAISQRGGSTYYADSVKGRFTISRDNAKNTVYLQMNSLKPEDTAVYYCNKERRNSGKFDYWGQGTQVTVSS	high polyreactivity
QVQLVESGGGLVQAAGSLRLICAASGRTFDSYAMGRYRQAPGKEREFVAAISYSGTSTYYADSVKGRFTISRDDAKNTVYLQMNSLKPEDTAVYYCAKEYIFRLWGQGTQVTVSS	low polyreactivity
QFQLVESGGGLVQAGGSLRLSCAASGIFVGYTMGWYRQAPGKEREFVAAIRWTDGSTYYADSVKGRFTISRDNAKNTVYLQMNSLKPEDTAVYYCAADSHDPARYYYGDEVEDEYWGQGTQVTVSS	low polyreactivity
QVQLVESGGGLVQAGGSHRLSCAASGFIFRRNAMGWYRQAPGKERELVAAITKSGGSTYYADSVKGRFTISRDNAKNTVYLQMNSLKPEDTAVYYCAAKRQTGQSYYWGQGTQVTVSS	high polyreactivity
QVQLVESGGGLVQAGGSLRLSCAASGRIFRPYAMGWYRQAPGKEREFVAAITQSGGITSYADSVKGRFTISRDNAKNTVYLQMNRLKPEDTAVYFCATTSRYTRSHYDWYDYWGQGTQVTVSS	low polyreactivity
QVQLVESGGGLVQAGGSLRLSCAASGSIFSYYTMGWYRQAPGKERELVAAITKSGGSTYYADSVKGRFTISRDNAKNTVYLQMNSLKPEDTAVYYCAASYGGYPKGNYWGQGTQVTVSS	high polyreactivity
QVQLEESGGGLDQAGGSLRLSCAASGRIFFYNAMGWYRQAPGKERELVAGISRSGTSTYYADSVKGRFTNSRDNAKNTVFLQMNSLKPEDTAVYYCAAAAWSVILWREMDYWGQGTQVTVSS	low polyreactivity
QVQLVESGGGLVQSGGSLRLSCAASGSTLIGNAMGWYRQAPGKERELVAAISSGGRTYYADSVKGRFTISRDNAKNTVYLQMNSLKPEDTAVYYCAADTVGTNVVSPELDYWGQGTQVTVSS	low polyreactivity
QVQLVESGGGLVQAGGSLRLSCAASGRTSRNNVMGSYRQAPGKERELVAAITKRTDRTYYADSVKGRFTISRDNAKNTVYLQMNSLKPEDTAVYYCAADLSLSTGGRAFPTYGYWGQGTQVTVSS	high polyreactivity
QDQLVESGGGLVQAGGSLRLSCAASVIIFEYYTMGWYRQAPGKERELVASITYDGDSTYYADSVKRRFTISRDNAKKTVYLQMNSQTPEDTAFYSCAADYYYVYSSYGHYYWGQGTQVTVSS	low polyreactivity

Sequence	polyreactivity (PSR sort gate)
QVQLVESGAGLVQAGGSLRLSCAGSGLTFRGNAMGCYRQAPGKERELVAAISWSDDTTDYADSVKGRFTISRDNAKNTVYLQMNSLKPEDTAVYYCAARRRIYRSMGFWGQGSQVTVSS	low polyreactivity
QVQLVESGGGLVQAGGSLRLSCAASGSTIYFYAMGWYRQAPGKERELVAAISGSGGRTYYADSVKGRFTISRDNAKNTVYLQMNSLKPEDTAVYYCAAEWYPYSDREFLYYYWGQGTQVTVSS	high polyreactivity
QVQRVESGGGLVQAGRSLRLSCAASGTTFGRNAMGWYRQAPGIERELVAAINSGGGTYYADSVKGRFTISRDNAKNTVYLQMNSLKPEDTSVFYCAAARRYGNYDYWGQGTQLTVSS	low polyreactivity
QVQLVESGGGLVQAGGSLRLSCAASGRTFPVNAMGWYRQAPGKEREFVAVISSTGTTYYADSVKGRFTISLDNAKITVYLQMNSLKPEDTAVYYCARRSNRRAYVNRVGVLRTVDYWGQGTQVTVSS	low polyreactivity
QVQLVESGGGLVQAGGSLRLSCAASGKIFYEYTMGWYRQAPGKERELVAAISWSGVSTYYADSVKGRFTISRDNAKNTVYLQMNSLKPEDTAVYYCAADRGNDYWGQGTQVTVSS	low polyreactivity
QVQLVESGGGLVQAGGSLRLSCAASGSIFYAYAMGWYRQAPGKERELVAAISSDGSTYYADSVKGRFTISRDNAKNTVYLQMTSLKPEDTAVYYCAASVLAPNAVSGSDYWGQGTQVTVSS	low polyreactivity
QVQLVESGGGLVQAGGSLRLSCAASGSTLTRHAMGWYRQAPGKERELVAAITSGGRTKYADSVKGRFTISRDNAKYTVYLHMNSLKPEDTAVYYCAKGGPPGQRGYDYWGQGTQVTVSS	high polyreactivity
QFQIVESGGGLVQAGGSLRLSCAASGYTFTGNAMGWYRQATGKEREFVAGITWRTGRTYYADSVKGRFTISRDNAKNSVYVLMNSLKPEDTAVYYCNKDHQRRYFWSYDYWGQGTLVTVSS	low polyreactivity
QFQLVESGGGIVQAGGSLRLSCAASGFTFVYYAMGWYRQAPGKERQLVAAITRSAGSTYYADSVKGRFTISRDNAKNTVYLQMNSLKPEDTAVYYCAALNSRYSKAQRMDYWGQGTQVTVSS	low polyreactivity
QFQLEESAGGLVQAGGSLRLSCAASGRTFADYAMGWYRPAPGKETELVAAISSGGSTYFAVSVKGRFTISRDNAKNTVYLQMNSLKPEDTAVYYCTARWGYRLGYWGQGTQVTVSS	high polyreactivity
QVQLVESGGGLVQAGGSLRLSCAASGLTFRVNAMGWYRQAPGKERELVAVISTDGGTTYYADSVKGRFTISRDNAKNTVYLQINSLKPEDTAVYYCAAKYAQVYIWVRQIHFDYWGQGTQVTVSS	low polyreactivity
QVQLVESGGGLVQAGGSLRLSCAASGSTFHYYAMGWYRQAPGKERELVAAISYRGSTYYADSVKGRFTISRDNAKNTVYLQMNSLKPEDTAVYYCAVVSSRGRRIYGYWGQGTQVTVSS	high polyreactivity
QVQLVESGGGLLQAGGSLRLSCAASGSMFGLYAMGWYRQAPGKERELVAAISKSGGSTYYADSVKGRFTISRDNAKNTVYLQMNSLKPEDTAVYFCAARQYPRAGFDYWGQGTQVTVSS	high polyreactivity
QVQLVESGVGLVQAGGSLRLSCAASGSIFHINAMGWSRQAPGKERELEADISQRGGSTYYADSVKGRFTISRDNAKNTVYLQMNSLKPEDTAVYFCAVVHVFYAVSYFSFYTYDYWGQGTQVTLSS	low polyreactivity
QVQLVESGGGLVQAGGSLRLSCAASGSIFYWNAMGWYRQAPGKERELVATITITTSTNYADSVKGRFTISRDNAKNTVYLQMNSLKPEDTAVYYCNAGAPYRYLDEYNYWGQGTQVTVSS	low polyreactivity
QVQLVESGGGLVQAGGSLRLICAASGFIFSSYAMVWYRQAPGKERDLVAAISQTVGGTYYADSVKGRFTISRDNAKNTVYLQMNSLKPEDTAVYYCAADVYTASDRYWHDYWGQGTQVTVSS	low polyreactivity
QVQLVESGGGLVQAGGSLRLSCAASGFTSLGNAMGWYRQAPGKERELVAAISRSGGRTYYADSVKGRFTISRDNAKNTVYLQMNSLKPEDTAVYYCNAVRLYGQGGDYWGQGTQVTVSS	high polyreactivity
QVQLVESGGCLVQAGGSLRLSCAASGGIFPGNAMGWYRQAPGKERELVATISYSGGSTYYADSVKGRFTISRDNAKNTVYLQMNSLKPEDTAVYYCAARGYKPTRSRRTEYGYWGQGTQVTVSS	high polyreactivity
QDQLVESGGGLVQAGGSLRLSCAASGITFYRYAMGWYRQAPGKERDLVAAITTSDTSTYYADSVKGRFTISRDNAKNTVYLQMNSLKPEDTAVYYCATDVVNIAPAEYDYWGQGTQVTVSS	low polyreactivity
QVQLVESGGGLVQAGGSLRLSCDASGRIFAGYAMGWYRQAPGKERELVASINWSGGSTYYADSVKGRFTISRDNAKNTVYLQMNSLKPEDTAVYYCAKEPTYRSGEAYVGLYYWGQGTQVTVSS	high polyreactivity
QVQLVESGGGLVQAGGSLRLSCAASGSIFSTNDRGWYRQAPGKERELVAAISVSGGSTYYADSVKGRFTISRDNAKNTVYLQMNSLKPEDTAVYYCNADYTRGTMYYWGQGTQVTVSS	low polyreactivity
